# Residue numbers refer to the chain shown, from its start.
# B1: 4H9.004.005 (antibody, human IgG1, kappa, N297G, V domains shown)
# VH: not shown
# VL: DIQMTQSPSSLSASVGDRVTITCRASQGIRNELGWYQQKPGKAPKRLIYGASSLQSGVPSRFSGSGSGTEFTLTISSLQPEDFVTYYCLQHNSYPFTFGQGTKVDVKR
# B2: 4H9.004.006 (antibody, human IgG1, kappa, N297G, V domains shown)
# VH: not shown
# VL: B1 VL with R46L
# B3: 17H11.004.001 (antibody, human IgG1, kappa, N297G, V domains shown)
# VH: QVQLQESGPGLVKPSETLSLTCTVSGGSISSYYWSWIRQPAGKGLEWIGRIYTSGSTNYNPSLKSRVTMSIDTSKNQFSLKLNSVTAADTAVYYCARDVAVAGFDYWGQGTLVTVSS
# VL: DIQMTQSPSSVSASVGDRVTITCRASQGLIIWLAWYQQKPGKAPKLLIYAASSLQSGVPSRFSGSGSGTDFTLTISSLQPEDFATYYCQQTNSFPPTFGQGTKVEIKR
# notes: also called iPS:359621; iPS:359623
# B4: 5G12.005.001 (antibody, human IgG1, kappa, N297G, V domains shown)
# VH: not shown
# VL: DIQLTQSPSSLSASVGDRVTITCRASQTISRFLNWYQQKPGKAPKLLIYVASSLQSGVPSRFSGSGSGTDFTLTISSLQPEDFATYYCQQSYSTLLSFGQGTKLEIKR
# B5: 5G12.006 (antibody, human IgG1, kappa, N297G, V domains shown)
# VH: QVQLVESGGGVVQPGRSLRLSCTASGFTFSSYGIHWVRQAPGKGLEWVAVIWYDGSNKFHADSVKGRFTISRDNSKNTLYLQMNSLRAEDSAMYFCARGKVAGMPEAFEIWGQGTKVTVSS
# VL: B4 VL with K45E, L96I, K107T
# B6: 5G12.006.006 (antibody, human IgG1, kappa, N297G, V domains shown)
# VH: not shown
# VL: B4 VL with K45E, L96I
# B7: 5G12.006.002 (antibody, human IgG1, kappa, N297G, V domains shown)
# VH: not shown
# VL: B4 VL with K45E, L96I
# B8: 5G12.006.005 (antibody, human IgG1, kappa, N297G, V domains shown)
# VH: B5 VH with T23A, G55A
# VL: B4 VL with K45E, L96I
# B9: 5C2.007 (antibody, human IgG1, kappa, N297G, V domains shown)
# VH: QVPLVQSGAEVKKPGASVKVSCKASGYTFTGYYIHWVRQAPGQGLEWMGWINPESGGTDYSQRFQGRFTMTRDTSISTAYMELNRLRSDDTAVYYCAREATIFGMVIVPFDYWGQGTLVTVSS
# VL: not shown
# B10: 13H12.003 (antibody, human IgG1, kappa, N297G, V domains shown)
# VH: B9 VH with N84S
# VL: not shown
# B11: 13H12 (antibody, human IgG1, kappa, N297G, V domains shown)
# VH: B9 VH with E54D, N84S
# VL: not shown
# B12: 13H12.006 (antibody, human IgG1, kappa, N297G, V domains shown)
# VH: B9 VH with F68V, N84S
# VL: not shown
# B13: 13H12.002 (antibody, human IgG1, kappa, N297G, V domains shown)
# VH: B9 VH with F68V, N84S
# VL: not shown
# B14: 13H12.004 (antibody, human IgG1, kappa, N297G, V domains shown)
# VH: B9 VH with E54D, F68V, N84S
# VL: not shown
# B15: 18E3 (antibody, human IgG1, kappa, N297G)
# heavy: not shown
# light: EIVLTQSPGTLSLSPGERATLSCRASQSISYSYLAWYQQKPGQAPRLLIYGASSRATGIPDRFSGSGSGTDFTLTISRQEPDDFAVYYCQQYGSSPLTFGGGTKVEIKRTVAAPSVFIFPPSDEQLKSGTASVVCLLNNFYPREAKVQWKVDNALQSGNSQESVTEQDSKDSTYSLSSTLTLSKADYEKHKVYACEVTHQGLSSPVTKSFNRGEC
# B16: 18E3.004 (antibody, human IgG1, kappa, N297G)
# heavy: not shown
# light: B15 light with Q79L
# B17: 18E3.003 (antibody, human IgG1, kappa, N297G)
# heavy: not shown
# light: B15 light
# B18: 18E3.006 (antibody, human IgG1, kappa, N297G)
# heavy: not shown
# light: B15 light with Q79L
# B19: 18E3.002 (antibody, human IgG1, kappa, N297G)
# heavy: not shown
# light: B15 light with Q79L
# B20: 18E3.007 (antibody, human IgG1, kappa, N297G)
# heavy: not shown
# light: B15 light
# B21: 18E3.005 (antibody, human IgG1, kappa, N297G)
# heavy: not shown
# light: B15 light with Q79L
# B22: 18E3.008 (antibody, human IgG1, kappa, N297G)
# heavy: not shown
# light: B15 light
# B23: 2G10_LC1.003 (antibody, human IgG1, kappa, N297G, V domains shown)
# VH: not shown
# VL: EIVMTQSPATLSVSPGERATLSCRASQSVSSNLAWYQQKPGQAPRLLIYGAATRATGIPARFSGSGSGTEFTLTISSLQSEDFAVYYCQQYNNWPLTFGGGTKVEIKR
# B24: 2G10_LC1.008 (antibody, human IgG1, kappa, N297G, V domains shown)
# VH: not shown
# VL: B23 VL with Q79E, S80P, W94Y
# B25: 2G10_LC1.009 (antibody, human IgG1, kappa, N297G, V domains shown)
# VH: not shown
# VL: B23 VL with Q79E, S80P
# B26: 2G10_LC1.010 (antibody, human IgG1, kappa, N297G, V domains shown)
# VH: not shown
# VL: B23 VL with Q79E, S80P
# B27: 2G10_LC1 (antibody, human IgG1, kappa, N297G, V domains shown)
# VH: QVQLVESGGGVVQPGRSLRLSCAASGFTFSNYGMHWVRQAPGEGLEWVAAIWFDGSDKYYADSVKGRFTISRDNSKNTLYLQMNSLRAEDTAVYYCARDQAIFGVVPDYWGQGTLVTVSS
# VL: B23 VL with F62V
# B28: 2G10_LC1.007 (antibody, human IgG1, kappa, N297G, V domains shown)
# VH: not shown
# VL: B23 VL with Q79E, S80P, W94F
# B29: 2G10_LC1.004 (antibody, human IgG1, kappa, N297G, V domains shown)
# VH: B27 VH with G55A
# VL: B23 VL
# B30: 2G10_LC1.005 (antibody, human IgG1, kappa, N297G, V domains shown)
# VH: not shown
# VL: B23 VL
# Target: T1, Rhesus GIPR (rhesus, UniProt F7E1R9 22-466)
# T1 sequence: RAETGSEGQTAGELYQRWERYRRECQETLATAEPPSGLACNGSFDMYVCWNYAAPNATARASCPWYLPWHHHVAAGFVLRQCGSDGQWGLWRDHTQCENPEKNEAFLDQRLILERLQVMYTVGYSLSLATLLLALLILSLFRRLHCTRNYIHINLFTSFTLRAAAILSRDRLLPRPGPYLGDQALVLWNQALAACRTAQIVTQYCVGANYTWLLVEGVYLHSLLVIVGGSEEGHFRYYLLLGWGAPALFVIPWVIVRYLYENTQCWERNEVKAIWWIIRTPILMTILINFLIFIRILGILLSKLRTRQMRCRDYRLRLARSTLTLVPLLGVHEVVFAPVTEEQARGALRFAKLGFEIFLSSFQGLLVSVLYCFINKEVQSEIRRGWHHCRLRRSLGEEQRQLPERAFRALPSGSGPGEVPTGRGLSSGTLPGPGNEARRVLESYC
# Assay: cell-based or functional assay
row,Binder,Rhesus GIPR CAMP Assay (Conc. mAb @ 60% Inhibition in nM)
1,B1,0.65 nM
2,B2,0.35 nM
3,B3,0.22 nM
4,B4,10.9 nM
5,B5,0.8 nM
6,B6,0.9 nM
7,B7,1 nM
8,B8,5.3 nM
9,B9,0.66 nM
10,B10,0.83 nM
11,B11,0.67 nM
12,B12,0.92 nM
13,B13,0.95 nM
14,B14,0.56 nM
15,B15,0.25 nM
16,B16,0.06 nM
17,B17,0.12 nM
18,B18,0.12 nM
19,B19,0.16 nM
20,B20,0.24 nM
21,B21,0.1 nM
22,B22,0.37 nM
23,B23,0.85 nM
24,B24,4 nM
25,B25,0.71 nM
26,B26,0.86 nM
27,B27,0.67 nM
28,B28,16.3 nM
29,B29,0.58 nM
30,B30,0.43 nM

# — patent US20250376529A1 (Amgen, published 2025)
